Like-named read-outs stand apart in the source and are kept apart here.
T1: MutS (Escherichia coli, UniProt P23909 1-853)
T1 sequence: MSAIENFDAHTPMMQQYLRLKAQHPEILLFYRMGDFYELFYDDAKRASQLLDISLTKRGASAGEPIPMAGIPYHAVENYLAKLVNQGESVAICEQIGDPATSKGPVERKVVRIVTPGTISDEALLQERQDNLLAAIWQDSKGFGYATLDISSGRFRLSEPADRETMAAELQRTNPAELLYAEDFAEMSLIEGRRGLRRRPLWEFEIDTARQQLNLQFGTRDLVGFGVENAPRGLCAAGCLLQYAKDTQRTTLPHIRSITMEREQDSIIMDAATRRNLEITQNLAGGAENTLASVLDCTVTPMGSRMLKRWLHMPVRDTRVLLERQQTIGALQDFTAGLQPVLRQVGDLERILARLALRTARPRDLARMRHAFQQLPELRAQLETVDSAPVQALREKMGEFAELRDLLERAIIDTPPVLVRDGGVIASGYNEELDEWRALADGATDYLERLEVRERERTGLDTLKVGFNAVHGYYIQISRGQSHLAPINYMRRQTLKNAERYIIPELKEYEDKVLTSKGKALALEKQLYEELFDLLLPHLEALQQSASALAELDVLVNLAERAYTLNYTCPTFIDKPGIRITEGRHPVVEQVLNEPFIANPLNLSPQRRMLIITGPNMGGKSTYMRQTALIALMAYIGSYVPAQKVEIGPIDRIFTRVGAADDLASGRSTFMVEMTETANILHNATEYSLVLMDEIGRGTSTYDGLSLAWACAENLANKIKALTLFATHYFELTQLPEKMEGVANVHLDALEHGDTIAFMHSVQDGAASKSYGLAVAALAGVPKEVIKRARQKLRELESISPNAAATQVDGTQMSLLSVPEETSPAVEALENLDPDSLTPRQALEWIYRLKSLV


Legend:
MutS [1] = target: T1, MutS; test: FRET equilibrium titration
MutS [2] = target: T1, MutS; test: FRET equilibrium titration; remark: listed apart in the source
MutS [3] = target: T1, MutS; test: stopped-flow FRET kinetics
MutS [4] = target: T1, MutS; test: stopped-flow FRET kinetics; remark: listed apart in the source
MutS [5] = target: T1, MutS; test: competition
MutS [6] = target: T1, MutS; test: competition; remark: listed apart in the source
MutS [7] = target: T1, MutS; test: competition; remark: listed apart in the source
[8] = target: the molecule itself; test: other fluorescence titration
[9] = target: the molecule itself; test: other fluorescence titration; remark: listed apart in the source

Binder | Kd (MutS [1]) [nM] | Kd (MutS [2]) [nM] | other results
30-CT (dsDNA) DNA 1: AACTGCCACGCACCAGTGTCAGCGTCGTAT DNA 2: ATACGACGCTGACACTGGTGCTTGGCAGTT | 324 | 331 | –
30-AA (dsDNA) DNA 1: AACTGCCAAGCACCAGTGTCAGCGTCGTAT DNA 2: ATACGACGCTGACACTGGTGCATGGCAGTT | 214 | 108 | Kd (MutS [3]): 63 nM; Kd (MutS [4]): 153 nM
30-GG (dsDNA) DNA 1: AACTGCCAGGCACCAGTGTCAGCGTCGTAT DNA 2: ATACGACGCTGACACTGGTGCGTGGCAGTT | 168 | 137 | –
AACTGCCAGGCACCAGTGTCAGCGTCGTAT (ssDNA) [30-ssDNA] | – | – | Kd (MutS [5]): 6500 nM; IC50 (MutS [6]): ~6200 nM
30-2ΔT (dsDNA) DNA 1: AACTGCCAGGCACCAGTGTCAGCGTCGTAT DNA 2: ATACGACGCTGACACTGGTGCCTTTGGCAGTT | 89 | 74 | –
30-GC (30-bp homoduplex) (dsDNA) DNA 1: AACTGCCAGGCACCAGTGTCAGCGTCGTAT DNA 2: ATACGACGCTGACACTGGTGCCTGGCAGTT | – | – | Kd (MutS [7]): 30500 nM; Kd (MutS [5]): 23100 nM
E. coli His6-MutS (natural protein, UniProt P23909 1-853, looked up) MSAIENFDAHTPMMQQYLRLKAQHPEILLFYRMGDFYELFYDDAKRASQLLDISLTKRGASAGEPIPMAGIPYHAVENYLAKLVNQGESVAICEQIGDPATSKGPVERKVVRIVTPGTISDEALLQERQDNLLAAIWQDSKGFGYATLDISSGRFRLSEPADRETMAAELQRTNPAELLYAEDFAEMSLIEGRRGLRRRPLWEFEIDTARQQLNLQFGTRDLVGFGVENAPRGLCAAGCLLQYAKDTQRTTLPHIRSITMEREQDSIIMDAATRRNLEITQNLAGGAENTLASVLDCTVTPMGSRMLKRWLHMPVRDTRVLLERQQTIGALQDFTAGLQPVLRQVGDLERILARLALRTARPRDLARMRHAFQQLPELRAQLETVDSAPVQALREKMGEFAELRDLLERAIIDTPPVLVRDGGVIASGYNEELDEWRALADGATDYLERLEVRERERTGLDTLKVGFNAVHGYYIQISRGQSHLAPINYMRRQTLKNAERYIIPELKEYEDKVLTSKGKALALEKQLYEELFDLLLPHLEALQQSASALAELDVLVNLAERAYTLNYTCPTFIDKPGIRITEGRHPVVEQVLNEPFIANPLNLSPQRRMLIITGPNMGGKSTYMRQTALIALMAYIGSYVPAQKVEIGPIDRIFTRVGAADDLASGRSTFMVEMTETANILHNATEYSLVLMDEIGRGTSTYDGLSLAWACAENLANKIKALTLFATHYFELTQLPEKMEGVANVHLDALEHGDTIAFMHSVQDGAASKSYGLAVAALAGVPKEVIKRARQKLRELESISPNAAATQVDGTQMSLLSVPEETSPAVEALENLDPDSLTPRQALEWIYRLKSLV | – | – | stoichiometry N [8]: 3.7 MutS monomers per heteroduplex; stoichiometry N [9]: 3.58 MutS monomers per heteroduplex
E. coli His6-mutS-A842E (natural protein, UniProt P23909 1-853, looked up) MSAIENFDAHTPMMQQYLRLKAQHPEILLFYRMGDFYELFYDDAKRASQLLDISLTKRGASAGEPIPMAGIPYHAVENYLAKLVNQGESVAICEQIGDPATSKGPVERKVVRIVTPGTISDEALLQERQDNLLAAIWQDSKGFGYATLDISSGRFRLSEPADRETMAAELQRTNPAELLYAEDFAEMSLIEGRRGLRRRPLWEFEIDTARQQLNLQFGTRDLVGFGVENAPRGLCAAGCLLQYAKDTQRTTLPHIRSITMEREQDSIIMDAATRRNLEITQNLAGGAENTLASVLDCTVTPMGSRMLKRWLHMPVRDTRVLLERQQTIGALQDFTAGLQPVLRQVGDLERILARLALRTARPRDLARMRHAFQQLPELRAQLETVDSAPVQALREKMGEFAELRDLLERAIIDTPPVLVRDGGVIASGYNEELDEWRALADGATDYLERLEVRERERTGLDTLKVGFNAVHGYYIQISRGQSHLAPINYMRRQTLKNAERYIIPELKEYEDKVLTSKGKALALEKQLYEELFDLLLPHLEALQQSASALAELDVLVNLAERAYTLNYTCPTFIDKPGIRITEGRHPVVEQVLNEPFIANPLNLSPQRRMLIITGPNMGGKSTYMRQTALIALMAYIGSYVPAQKVEIGPIDRIFTRVGAADDLASGRSTFMVEMTETANILHNATEYSLVLMDEIGRGTSTYDGLSLAWACAENLANKIKALTLFATHYFELTQLPEKMEGVANVHLDALEHGDTIAFMHSVQDGAASKSYGLAVAALAGVPKEVIKRARQKLRELESISPNAAATQVDGTQMSLLSVPEETSPAVEALENLDPDSLTPRQELEWIYRLKSLV | – | – | stoichiometry N [8]: 2.21 MutS monomers per heteroduplex; stoichiometry N [9]: 2.27 MutS monomers per heteroduplex
30-AC (dsDNA) DNA 1: AACTGCCAAGCACCAGTGTCAGCGTCGTAT DNA 2: ATACGACGCTGACACTGGTGCCTGGCAGTT | 154 | 97 | –
90-bp homoduplex (dsDNA) DNA 1: CGCAGTGCTAAGACGTACCATGCAACCGTAGATTCTAACTGCCAGGCACCAGTGTCAGCGTCGTATAGTCGTGTATAGATCGTTATCTGC DNA 2: GCAGATAACGATCTATACACGACTATACGACGCTGACACTGGTGCCTGGCAGTTAGAATCTACGGTTGCATGGTACGTCTTAGCACTGCG | – | – | Kd (MutS [5]): ~3700 nM; IC50 (MutS [6]): ~3600 nM
30-CC (dsDNA) DNA 1: AACTGCCACGCACCAGTGTCAGCGTCGTAT DNA 2: ATACGACGCTGACACTGGTGCCTGGCAGTT | 300 | 410 | –
30-AG (dsDNA) DNA 1: AACTGCCAAGCACCAGTGTCAGCGTCGTAT DNA 2: ATACGACGCTGACACTGGTGCGTGGCAGTT | 319 | 251 | –
30-TT (dsDNA) DNA 1: AACTGCCATGCACCAGTGTCAGCGTCGTAT DNA 2: ATACGACGCTGACACTGGTGCTTGGCAGTT | 291 | 321 | –
30-TG (dsDNA) DNA 1: AACTGCCATGCACCAGTGTCAGCGTCGTAT DNA 2: ATACGACGCTGACACTGGTGCGTGGCAGTT | 80 | 70 | –

From PMC2666446 (Journal of molecular biology, 2008)
